Drawing on the supplement of paper PMC10567573, this text covers protein stability index for 73 sequences.

± gives the standard deviation.

This data set in a line: protein stability index of a GFP-peptide fusion (GPS, HEK-293T) (PSI 1-6); higher = more stable.
[1] abbreviates: treatment: DMSO, c terminus: a fixed tail appended.
Where [2] appears, read: treatment: MLN4924 1 uM, 8 h, c terminus: a fixed tail appended.
Where [3] appears, read: treatment: DMSO, c terminus: native.
[4] abbreviates: treatment: MLN4924 1 uM, 8 h, c terminus: native.
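Further: 24-mer peptide tiles fused after GFP, lentivirally expressed, FACS-sorted into six equal bins by GFP/DsRed ratio, decoded by Illumina sequencing, PSI is the read-weighted mean bin number.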

Consider SQSILPLEHGSIYIPSSYVDSHHE [ESR2], for which the protein stability index is, setting by setting: under setting [1], 3.96 ± 0.19; under setting [2], 3.95 ± 0.17.
Taken in the same sequence, the figures for SQYIAVEAAEGRNKNEVFYQCPDQ [FBXO3] were 4.46 ± 0.061 and 4.74 ± 0.094.
Take SRASAARVGQLQEALNERHSIINA [LRRC45]: the protein stability index is, setting by setting: under setting [1], 4.01 ± 0.38; under setting [2], 3.97 ± 0.19.
With SRCRNSYTEQELKPLTLEALGHLG [DLC1], the protein stability index under setting [1] came to 2.85 ± 0.32 and the protein stability index under setting [2] is 2.99 ± 0.21.
The like results for SSHSRGPLSWAPCGPIAGSRQALS were, in that order, 3.42 ± 0.13 and 3.44 ± 0.17.
Take SSISPGLHSFTDHQRLMKRRKSV [KCNK9]: the protein stability index is 5.64 ± 0.088 under setting [3] and 5.47 ± 0.23 under setting [4].
SSKEEQKLIATSNKPAVKLLYNRS [KCTD10]: the protein stability index was determined as 3.9 ± 0.27 under setting [1] and 4.08 ± 0.48 under setting [2].
Taken in the same sequence, the figures for SSNLSLDVLRGNDETIGFEDILND [POMP] were 5.08 ± 0.17 and 4.94 ± 0.32.
On to SSPRGMVRVCDLLLKKKPPQQQHH [ANKRD17], for which the protein stability index under setting [1] was determined as 3.2 ± 0.23 and the protein stability index under setting [2] stood at 3.28 ± 0.13.
Consider SSSRDTDWVVVKEPVIKVAAIDNG [PI4K2A], for which the protein stability index under setting [1] was 4.25 ± 0.1 and the protein stability index under setting [2] came to 4 ± 0.11.
Taken in the same sequence, the figures for STASTTSTTNSTAAKPAASITSKP [ZNF207] were 5.15 ± 0.11 and 5.01 ± 0.19.
Taken in the same sequence, the figures for STNGELNVDDPTGAHSNAPITAHA [CSNK1G1] were 5.39 ± 0.15 and 5.29 ± 0.33.
Taken in the same sequence, the figures for SVGFQSNEAASLASTGVGVVKVIS [SLC2A12] were 3.68 ± 0.64 and 3.6 ± 0.41.
As for SVICRSLPEGMGPGESGQPPPAC [ALKBH7], the protein stability index turned out to be 2.87 ± 0.71 under setting [3] and 3.5 ± 0.69 under setting [4].
As for SVSLRKAERLRAELLDLKAGGFSI [MYORG], the protein stability index runs as follows: under setting [1], 2.25 ± 0.36; under setting [2], 2.39 ± 0.29.
The like results for SWARQESLQERKQALYEYARRRFT [AUP1] were, in that order, 3.8 ± 0.17 and 3.81 ± 0.12.
The like results for SYFDRGAKGGSRLCTPEGWFSCQG [DFFB] were, in that order, 2.46 ± 0.14 and 2.6 ± 0.18.
Taken in the same sequence, the figures for SYHDGYGEALGRDHSEHLSGSSYR [RBMY1A1] were 4 ± 0.19 and 4.12 ± 0.35.
Turning to SYKDLDVIFGVELPGNEEFQVVKD [TENT5D], the protein stability index worked out at 3.84 ± 0.24 under setting [1] and 3.88 ± 0.099 under setting [2].
Taken in the same sequence, the figures for SYLDKVRALEEANTELEVKIRDWY [KRT17] were 2.97 ± 0.23 and 3.07 ± 0.32.
TACAVIILTIICYLGLPRLEFYRY [SLC29A1]: the protein stability index runs as follows: under setting [1], 3.04 ± 0.18; under setting [2], 3.1 ± 0.13.
The like results for TAEPFPRLHNLYSTPRCAQQAALP [CBY2] were, in that order, 2.67 ± 0.2 and 2.66 ± 0.24.
Turning to TATREEASTSLPTKPTQGASSASE [CLPTM1], the protein stability index under setting [1] was found to be 5.47 ± 0.34 and the protein stability index under setting [2] amounted to 5.4 ± 0.46.
With TDEEEGLIWVVGPVLAVVFIICIV [PTPRD], the protein stability index came to 2.1 ± 0.4 under setting [1] and 2.07 ± 0.46 under setting [2].
In the case of TDEFRELRATVERMGLMKANHVFF [FADS1], the protein stability index by setting is: under setting [1], 2.48 ± 0.56; under setting [2], 2.12 ± 0.21.
The like results for TDLDAVRTPEPLEEFPKREDQEGS [MYBL2] were, in that order, 5.43 ± 0.11 and 5.52 ± 0.21.
The like results for TEGAFGLYRGLAPNFMKVIPAVSI [SLC25A25] were, in that order, 1.88 ± 0.51 and 2.39 ± 0.66.
Taken in the same sequence, the figures for TEHMKTHTGLKPYECGVCAKKFMW [ZBTB22] were 2.65 ± 0.26 and 2.77 ± 0.34.
Consider TEIANCSLKVKFFDLERENACATK [PLD5], for which, under setting [2], the protein stability index turned out to be 3.92 ± 0.4.
For TELVLSDCMLSEEGATLLLRGLCA [LRRC45], the protein stability index under setting [1] turned out to be 2.32 ± 0.3 and the protein stability index under setting [2] came out at 2.32 ± 0.24.
Taken in the same sequence, the figures for TFEQAIQAASRIIRNEQFAIRRFQ [CDC25B] were 2.38 ± 0.48 and 2.01 ± 0.32.
The like results for TFLVFSKAELGALPHDFIDSLEKT [NLN] were, in that order, 2.13 ± 0.26 and 2.5 ± 0.25.
The like results for TFQSHEPEFDYLKSLEIEEKINKI [PPP2R2C] were, in that order, 4.74 ± 0.17 and 4.81 ± 0.31.
As to THRDRPSQQQPLRNQVVSSTNGEL [CSNK1G1], the protein stability index is, setting by setting: under setting [1], 4.93 ± 0.33; under setting [2], 4.71 ± 0.36.
The like results for THTQIDQQPPRLLIVHIALPSWAD [M1AP] were, in that order, 2.75 ± 0.59 and 2.68 ± 0.54.
Consider TIEDEDVKARKQEIIKVTEQLIEA [CAMK2D], for which the protein stability index runs as follows: under setting [1], 5.25 ± 0.075; under setting [2], 5.26 ± 0.11.
The like results for TIKSHLKSFSMANGMNAVMMHGRS [RAB40C] were, in that order, 2.54 ± 0.14 and 2.6 ± 0.23.
TKFQELQLAAGRHGDDLKNTKNEI [KRT71]: the protein stability index is, setting by setting: under setting [1], 4.12 ± 0.39; under setting [2], 4.28 ± 0.13.
The like results for TKVGSFMIRESETKKGFYSLSVRH [SLA] were, in that order, 2.68 ± 0.37 and 2.66 ± 0.69.
The like results for TLICRKLGGVKKSATLRSFEGLMG [TPD52L3] were, in that order, 2.06 ± 0.16 and 2.34 ± 0.33.
Taken in the same sequence, the figures for TLPKSLSLPTTAPSNSSSLTLSGI [MYBL2] were 3.87 ± 0.12 and 3.83 ± 0.28.
Consider TLSKSEYMVIEEGGMNHSAFPQTP [KCNA3], for which the protein stability index by setting is: under setting [1], 3.43 ± 0.15; under setting [2], 3.53 ± 0.28.
The like results for TMIRKLEGHHHDVVACDFSPDGAL [WSB1] were, in that order, 3.25 ± 0.28 and 3.48 ± 0.37.
Regarding TPESTKPGPVCQPPVSQSRSLFSS [ANKRD40], the protein stability index is, setting by setting: under setting [1], 4.46 ± 0.19; under setting [2], 4.21 ± 0.21.
The like results for TPLHIAAQNNCPAIMNALIEAGAH [FEM1A] were, in that order, 3.07 ± 0.2 and 3.13 ± 0.23.
For the sequence TQSDLYKKTQETLSQAGQKTSAAL [TPD52L2], the protein stability index reads like this: under setting [1], 4.88 ± 0.067; under setting [2], 4.93 ± 0.21.
TQTTNDGVCQSMCHDKYTKIFNDF [ZMYND11]: the protein stability index came to 3.05 ± 0.2 under setting [1] and 3.27 ± 0.12 under setting [2].
The sequence TRAADLLVNPLDPRNADKIRVKIA [SRPK2] showed a protein stability index under setting [1] of 3.64 ± 0.48 and a protein stability index under setting [2] of 3.75 ± 0.23.
Taken in the same sequence, the figures for TREGFTLLHLAVNSNTPVDDFHTN [FEM1B] were 2.85 ± 0.17 and 2.95 ± 0.19.
Taken in the same sequence, the figures for TRNGEVVTESQKEQRSELDKSSAH [PRPH] were 5.06 ± 0.27 and 5.31 ± 0.4.
TSFNHMDSDKLSGLWSRISHLVLP [TOR1AIP2]: the protein stability index is, setting by setting: under setting [1], 2.28 ± 0.2; under setting [2], 2.33 ± 0.2.
The like results for TSLFLGNGVLLCFYSQEWYARQHC [SOAT1] were, in that order, 2.9 ± 0.8 and 2.91 ± 0.32.
Take TSPSSNNSSEELSSALHLSKGMSI [NECAB1]: the protein stability index is 4.26 ± 0.19 under setting [1] and 4.24 ± 0.16 under setting [2].
In the case of TSSLRLNWEAPPGAFDSFLLRFGV [TNXB], the protein stability index runs as follows: under setting [1], 2.06 ± 0.27; under setting [2], 2.21 ± 0.56.
Taken in the same sequence, the figures for TSVLDALSTDMVHAASDPSSSSGR [SMOC2] were 4.99 ± 0.19 and 4.96 ± 0.18.
TVEEAKAEKETELSLQKEQLQLKI [TRIM29]: the protein stability index came to 5.1 ± 0.27 under setting [1] and 5.33 ± 0.3 under setting [2].
The like results for TYHVGKQCFFNGVFLGNKRSLSER [SPATS1] were, in that order, 2.36 ± 0.21 and 2.59 ± 0.22.
The like results for VAAETGHTSTARLLLHRGAGKEAM [RIPK4] were, in that order, 3.6 ± 0.28 and 3.46 ± 0.13.
In the case of VDALKSDKKVRTIIIRSEVPGIFC [AUH], the protein stability index runs as follows: under setting [1], 2.01 ± 0.38; under setting [2], 2.35 ± 0.73.
The like results for VELLKNLTKYPTDRDSIWKCLKFL [INTS4] were, in that order, 2.63 ± 0.28 and 2.08 ± 0.22.
Taken in the same sequence, the figures for VEPVCSGLQAQILHCYRDRPHEVL [CHCHD6] were 2.93 ± 0.21 and 2.94 ± 0.5.
Taken in the same sequence, the figures for VFRVSSDKLALCHLELTRKLQDLI [FCHO1] were 2.28 ± 0.46 and 2.03 ± 0.61.
As for VFSFGKHYWELDVDNSCDWALGVC [TRIM43], the protein stability index by setting is: under setting [1], 2.54 ± 0.085; under setting [2], 2.54 ± 0.39.
Turning to VGIFNTVINPMLNPIIYSFRNPDV [OR3A1], the protein stability index is, setting by setting: under setting [1], 2.34 ± 0.48; under setting [2], 3.03 ± 0.83.
Taken in the same sequence, the figures for VGVDRAFPLKPMVHRKSCSTGEAG [ZC2HC1C] were 3.74 ± 0.18 and 4.2 ± 0.16.
Taken in the same sequence, the figures for VHSDLSSIVILDNSPGAYRSHPDN [CTDNEP1] were 3.6 ± 0.15 and 3.72 ± 0.27.
Taken in the same sequence, the figures for VIFALCWFPLHLSRILKKTVYNEM [EDNRA] were 3 ± 0.64 and 2.92 ± 0.68.
In turn, VIKMLVNDNKVLRYLAVLESPIPE [EFHC1] gave a protein stability index under setting [1] of 2.32 ± 0.31.
On to VKDTDDVPMILVGNKCDLEDERVV [RAP1B], for which the protein stability index turned out to be 4.65 ± 0.45 under setting [1] and 5.02 ± 0.16 under setting [2].
The like results for VKKCLELFSELAEDKENYKKFYEA [HSP90AB1] were, in that order, 2.54 ± 0.34 and 2.74 ± 0.33.
The like results for VKPENFLIGRPGNKTQQVIHIIDF [CSNK1G3] were, in that order, 2.4 ± 0.72 and 2.5 ± 0.34.
Regarding VLALFVYVAWNEGSRQWREGKQD [VMA21], the protein stability index was determined as 2.51 ± 0.49 under setting [3] and 2.85 ± 1.1 under setting [4].
Regarding VLGPLVALIICYNWLHRRLAGQFL [MOG], the protein stability index is, setting by setting: under setting [1], 3.15 ± 0.19; under setting [2], 2.92 ± 0.13.
